The record followed here is publication PMC13379273 (Advanced Science, 2026).

The data set concerns the molecule itself. The data set can be described thus: SEC; […] (20 mM HEPES, 150 mM NaCl pH 7.2), room temperature; […].

B1: Hendra virus W protein (W^HeV), wild type (natural protein)
chain: MDKLDLVNDGLDIIDFIQKNQKEIQKTYGRSSIQQPSTKDRTRAWEDFLQSTSGEHEQAEGGMPKNDGGTEGRNVEDLSSVTSSDGTIGQRVSNTRAWAEDPDDIQLDPMVTDVVYHDHGGECTGHGPSSSPERGWSYHMSGTHDGNVRAVPDTKVLPNAPKTTVPEEVREIDLIGLEDKFASAGLNPAAVPFVPKNQSTPTEEPPVIPEYYYGSGRRGDLSKSPPRGNVNLDSIKIYTSDDEDENQLEYEDEFAKSSSEVVIDTTPEDNDSINQEEVVGDPSDQGLEHPFPLGKFPEKEETPDVRRKDSLMQDSCKRGGVPKRLPMLSEEFECSGSDDPIIQELEREGSHPGGSLRLREPPQSSGNSRNQPDRQLKTGDAASPGGVQRPGTPMPKSRIMPIKKGAQTRSLNMLGRKTCLGRRVVQPGMFADYPPTKKARVLLRRMSN
As for B1, the binding result is “binds”.
